The target of assay [1] is T1, Human 4-1BB His (human, UniProt Q07011 24-186).
T1 construct: Bought protein; lots 198-2146F1-W6 and 2407c-214FF1-YC; also called human 4-1BB protein; 4-1BB protein; not shown: His tag
The assay is described as follows: ELISA: Human 4-1BB His coated (0.2 ug/mL), antibody titrated, goat anti-human IgG Fc detection (Example 3). The method, then: (§1) Human 4-1BB His (manufacturer: Acro, CAT: 41B-H5258, LOT: 198-2146F1-W6) was diluted to 0.2 μg/mL with a coating solution (1×PBS, pH7.4), and coated in 96-well ELISA plate at 100 μL/well overnight at 4° C. The coating solution was poured off. Each well was washed with 1×PBST at 300 μL, washed 4 times with a plate washer, and patted dry on a flat paper. It was blocked with 3% skim milk powder at 300 μL/well, and incubated at 37° C. for 1 h. The blocking solution was poured off, washed 4 times with a plate washer, and patted dry on a flat paper. Negative control and positive control were set up. […] The variable region of the antibody sequence of the positive control consists of SEQ ID NO: 15 and SEQ ID NO: 19, with the addition of the constant region of human IgG1 (SEQ ID NO: 46 and SEQ ID NO: 47). The positive control and antibody were diluted to 10 μg/mL with 3% skim milk powder as the starting concentration, and then diluted by 3-fold gradient (11 gradients in total), and a blank well was set up and only the diluent was added. It was incubated at 37° C. for 1 h at 100 μL/well. The liquid in the well was discarded, washed 4 times with a plate washer, and patted dry on a flat paper. Goat anti-human IgG Fc was diluted with 3% skim milk powder at 1:20000, and incubated at 37° C. for 1 h at 100 μL/well. It was washed 6 times with a plate washer, and patted dry on a flat paper. TMB color developing solution was added at 100 μL/well, and wrapped with aluminum foil. Color development was performed at 37° C. in the dark for 8 min. Termination solution 1M HCl was added to terminate the color development reaction at 100 μL/well. Readings were taken at 450 nm on an ELISA reader.

Assay [2] concerns the target T1, Human 4-1BB His. Described as above. The method, then:
as §1
This is another data set of the same source.

Like-named read-outs stand apart in the source and are kept apart here.

The record followed here is patent US20260049151A1 (SHENGHE CHINA BIOPHARMACEUTICAL, published 2026).

Usually EC50 (read off the curve) stands for the concentration needed to bring the measured effect to its halfway point.

T1 sequence (Q07011 24-186 limits assumed): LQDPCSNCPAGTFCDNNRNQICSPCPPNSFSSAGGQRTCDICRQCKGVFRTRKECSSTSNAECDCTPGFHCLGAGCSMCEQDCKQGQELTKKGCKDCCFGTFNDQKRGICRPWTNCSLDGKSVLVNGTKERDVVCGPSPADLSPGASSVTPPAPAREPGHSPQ

B1: Antibody E1 (bispecific antibody, human IgG1, kappa)
light: DIVMTQSPATLSVSPGERATLSCKASQNVGSNVDWYQQKPGQSPRVLIYKASIRYTGIPARFSGSGSGTEFTLTISILQSEDFAVYFCMQSKSYPITFGQGTKLEIKRTVAAPSVFIFPPSDEQLKSGTASVVCLLNNFYPREAKVQWKVDNALQSGNSQESVTEQDSKDSTYSLSSTLTLSKADYEKHKVYACEVTHQGLSSPVTKSFNRGEC
heavy: not shown
notes: IgG1 subtype; full-length TNFR2 antibody with 4-1BB scFv at the C-terminus of the heavy chains
Consider B1, for which, in the assay with Human 4-1BB His [1], the concentration giving a half-maximal response (EC50 (read off the curve)) is around 0.2 nM.

B2: Antibody M1 (bispecific antibody, human IgG1, kappa)
light: DIQMTQSPSSLSASLGDRVTISCSASQGISNYLNWYQQKPDGTVKLLIYYTSTLHSGVPSRFSGSGSGTDYTLTISSLQPEDIATYYCQQYSKLPWTFGGGTKLEIKRTVAAPSVFIFPPSDEQLKSGTASVVCLLNNFYPREAKVQWKVDNALQSGNSQESVTEQDSKDSTYSLSSTLTLSKADYEKHKVYACEVTHQGLSSPVTKSFNRGEC
heavy: not shown
notes: IgG1 subtype; full-length 4-1BB antibody with TNFR2 VHH at the N-terminus of the heavy chains
With B2, the half-maximal effective concentration (EC50 (read off the curve)) in the assay with Human 4-1BB His [2] is around 0.09 nM.
